Source: article PMC12635197, “Discovery of first-in-class inhibitors of the TRF1:TIN2 protein:protein interaction by fragment screening” (Scientific Reports, 2025)

B1: POT1, subunit of recombinant shelterin (natural protein, UniProt Q9NUX5-1 1-634, looked up)
chain: MSLVPATNYIYTPLNQLKGGTIVNVYGVVKFFKPPYLSKGTDYCSVVTIVDQTNVKLTCLLFSGNYEALPIIYKNGDIVRFHRLKIQVYKKETQGITSSGFASLTFEGTLGAPIIPRTSSKYFNFTTEDHKMVEALRVWASTHMSPSWTLLKLCDVQPMQYFDLTCQLLGKAEVDGASFLLKVWDGTRTPFPSWRVLIQDLVLEGDLSHIHRLQNLTIDILVYDNHVHVARSLKVGSFLRIYSLHTKLQSMNSENQTMLSLEFHLHGGTSYGRGIRVLPESNSDVDQLKKDLESANLTANQHSDVICQSEPDDSFPSSGSVSLYEVERCQQLSATILTDHQYLERTPLCAILKQKAPQQYRIRAKLRSYKPRRLFQSVKLHCPKCHLLQEVPHEGDLDIIFQDGATKTPDVKLQNTSLYDSKIWTTKNQKGRKVAVHFVKNNGILPLSNECLLLIEGGTLSEICKLSNKFNSVIPVRSGHEDLELLDLSAPFLIQGTIHHYGCKQCSSLRSIQNLNSLVDKTSWIPSSVAEALGIVPLQYVFVMTFTLDDGTGVLEAYLMDSDKFFQIPASEVLMDDDLQKSVDMIMDMFCPPGIKIDAYPWLECFIKSYNVTNGTDNQICYQIFDTTVAEDVI
notes: POT1 (shelterin subunit), gene NM_015450, codon-optimised
B2: TRF2 (telomeric repeat-binding factor 2), subunit of recombinant shelterin (natural protein, UniProt Q15554-3 1-542, looked up)
chain: MAAGAGTAGPASGPGVVRDPAASQPRKRPGREGGEGARRSDTMAGGGGSSDGSGRAAGRRASRSSGRARRGRHEPGLGGPAERGAGEARLEEAVNRWVLKFYFHEALRAFRGSRYGDFRQIRDIMQALLVRPLGKEHTVSRLLRVMQCLSRIEEGENLDCSFDMEAELTPLESAINVLEMIKTEFTLTEAVVESSRKLVKEAAVIICIKNKEFEKASKILKKHMSKDPTTQKLRNDLLNIIREKNLAHPVIQNFSYETFQQKMLRFLESHLDDAEPYLLTMAKKALKSESAASSTGKEDKQPAPGPVEKPPREPARQLRNPPTTIGMMTLKAAFKTLSGAQDSEAAFAKLDQKDLVLPTQALPASPALKNKRPRKDENESSAPADGEGGSELQPKNKRMTISRLVLEEDSQSTEPSAGLNSSQEAASAPPSKPTVLNQPLPGEKNPKVPKGKWNSSNGVEEKETWVEEDELFQVQAAPDEDSTTNITKKQKWTVEESEWVKAGVQKYGEGNWAAISKNYPFVNRTAVMIKDRWRTMKRLGMN
notes: TRF2, gene NM_005652.4, codon-optimised
B3: RAP1, subunit of recombinant shelterin (natural protein, UniProt Q9NYB0 1-399, looked up)
chain: MAEAMDLGKDPNGPTHSSTLFVRDDGSSMSFYVRPSPAKRRLSTLILHGGGTVCRVQEPGAVLLAQPGEALAEASGDFISTQYILDCVERNERLELEAYRLGPASAADTGSEAKPGALAEGAAEPEPQRHAGRIAFTDADDVAILTYVKENARSPSSVTGNALWKAMEKSSLTQHSWQSLKDRYLKHLRGQEHKYLLGDAPVSPSSQKLKRKAEEDPEAADSGEPQNKRTPDLPEEEYVKEEIQENEEAVKKMLVEATREFEEVVVDESPPDFEIHITMCDDDPPTPEEDSETQPDEEEEEEEEKVSQPEVGAAIKIIRQLMEKFNLDLSTVTQAFLKNSGELEATSAFLASGQRADGYPIWSRQDDIDLQKDDEDTREALVKKFGAQNVARRIEFRKK
notes: RAP1 (TRF2-associated shelterin subunit), gene NM_018975.3, codon-optimised
B4: TPP1, subunit of recombinant shelterin (natural protein, UniProt Q96AP0 1-458, looked up)
chain: MAGSGRLVLRPWIRELILGSETPSSPRAGQLLEVLQDAEAAVAGPSHAPDTSDVGATLLVSDGTHSVRCLVTREALDTSDWEEKEFGFRGTEGRLLLLQDCGVHVQVAEGGAPAEFYLQVDRFSLLPTEQPRLRVPGCNQDLDVQKKLYDCLEEHLSESTSSNAGLSLSQLLDEMREDQEHQGALVCLAESCLTLEGPCTAPPVTHWAASRCKATGEAVYTVPSSMLCISENDQLILSSLGPCQRTQGPELPPPDPALQDLSLTLIASPPSSPSSSGTPALPGHMSSEESGTSISLLPALSLAAPDPGQRSSSQPSPAICSAPATLTPRSPHASRTPSSPLQSCTPSLSPRSHVPSPHQALVTRPQKPSLEFKEFVGLPCKNRPPFPRTGATRGAQEPCSVWEPPKRHRDGSAFQYEYEPPCTSLCARVQAVRLPPQLMAWALHFLMDAQPGSEPTPM
notes: TPP1 (shelterin subunit), gene BC016904.1, codon-optimised

Molecular target: T1, (StrepII)2-TEV-tagged TIN2, subunit of recombinant shelterin (UniProt Q9BSI4-1 1-451)
T1 construct: TIN2, gene NM_001099274.1, codon-optimised; a TEV site lies between tag and protein; The separately made control protein is called TIN2L; The discussion says that the complex carries a short peptidic tag on TIN2; source: Sf9, co-expressed with the other shelterin subunits (MultiBac baculovirus), purified (StrepTrap, serial SEC)
T1 sequence (looked up): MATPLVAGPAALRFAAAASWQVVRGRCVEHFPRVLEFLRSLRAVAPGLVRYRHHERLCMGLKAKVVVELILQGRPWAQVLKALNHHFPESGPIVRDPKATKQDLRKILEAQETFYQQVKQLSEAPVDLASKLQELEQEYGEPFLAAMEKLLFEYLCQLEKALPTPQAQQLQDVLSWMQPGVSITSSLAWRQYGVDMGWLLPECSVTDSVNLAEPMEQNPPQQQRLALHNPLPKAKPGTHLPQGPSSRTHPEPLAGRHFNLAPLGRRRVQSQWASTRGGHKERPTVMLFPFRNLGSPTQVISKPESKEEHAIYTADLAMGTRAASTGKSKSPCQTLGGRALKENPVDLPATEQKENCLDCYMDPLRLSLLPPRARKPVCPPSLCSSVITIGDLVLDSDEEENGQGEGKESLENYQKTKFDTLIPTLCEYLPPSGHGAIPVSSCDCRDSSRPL
Experiment: mass photometry; SEC-purified shelterin without compound; complex of around 700 kDa; 50 mM HEPES-NaOH pH 8.0, 300 mM NaCl
Conditions: both partners purified

Row | Binder | stoichiometry N
1 | B1 | 1 POT1 per TIN2
2 | B2 | 4 TRF2 per TIN2
3 | B3 | 4 RAP1 per TIN2
4 | B4 | 1 TPP1 per TIN2
